{"source": "patent US20240417437A1", "about": "“Linker Polypeptides” (Trutino Biosciences Inc., priority 2021, published 2024)", "molecules": {"B1": {"name": "Construct DD: mIL2-2x(GHHPH)-MMPscr-2x(G4S)-mIL2Ra(1-215)-muIgG1Fc; pH heparin (protein)", "chain": "APTSSSTSSSTAEAQQQQQQQQQQQQHLEQLLMDLQELLSRMENYRNLKLPRMLTFKFYLPKQATELKDLQCLEDELGPLRHVLDLTQSKSFQLEDAENFISNIRVTVVKLKGSDNTFECQFDDESATVVDFLRRWIAFCQSIISTSPQGHHPHGHHPHGVRLGPGGGGGSGGGGSELCLYDPPEVPNATFKALSYKNGTILNCECKRGFRRLKELVYMRCLGNSWSSNCQCTSNSHDKSRKQVTAQLEHQKEQQTTTDMQKPTQSMHQENLTGHCREPPPWKHEDSKRIYHFVEGQSVHYECIPGYKALQRGPAISICKMKCGKTGWTQPQLTCVDEREHHRFLASEESQGSRNSSPESETSCPITTTDFPQPTETTAMTETFVLTMEYKGCKPCICTVPEVSSVFIFPPKPKDVLTITLTPKVTCVVVDISKDDPEVQFSWFVDDVEVHTAQTQPREEQFNSTFRSVSELPIMHQDWLNGKEFKCRVNSAAFPAPIEKTISKTKGRPKAPQVYTIPPPKEQMAKDKVSLTCMITDFFPEDITVEWQWNGQPAENYKNTQPIMDTDGSYFVYSKLNVQKSNWEAGNTFTCSVLHEGLHNHHTEKSLSHSPGK", "modifications": "Synthetic: Construct DD", "notes": "mIL2-2x(GHHPH)-MMPscr-2x(G4S)-mIL2Ra(1-215)-muIgG1Fc; pH heparin"}, "B2": {"name": "Construct III: mIL2-VRIQRKKEKMKET-MMPcs1-GGSKLWVLPKGS-mIL2Ra-muIgG1Fc; hep/col IV (protein)", "chain": "APTSSSTSSSTAEAQQQQQQQQQQQQHLEQLLMDLQELLSRMENYRNLKLPRMLTFKFYLPKQATELKDLQCLEDELGPLRHVLDLTQSKSFQLEDAENFISNIRVTVVKLKGSDNTFECQFDDESATVVDFLRRWIAFCQSIISTSPQVRIQRKKEKMKETGPLGVRGGGSKLWVLPKGSELCLYDPPEVPNATFKALSYKNGTILNCECKRGFRRLKELVYMRCLGNSWSSNCQCTSNSHDKSRKQVTAQLEHQKEQQTTTDMQKPTQSMHQENLTGHCREPPPWKHEDSKRIYHFVEGQSVHYECIPGYKALQRGPAISICKMKCGKTGWTQPQLTCVDEREHHRFLASEESQGSRNSSPESETSCPITTTDFPQPTETTAMTETFVLTMEYKGCKPCICTVPEVSSVFIFPPKPKDVLTITLTPKVTCVVVDISKDDPEVQFSWFVDDVEVHTAQTQPREEQFNSTFRSVSELPIMHQDWLNGKEFKCRVNSAAFPAPIEKTISKTKGRPKAPQVYTIPPPKEQMAKDKVSLTCMITDFFPEDITVEWQWNGQPAENYKNTQPIMDTDGSYFVYSKLNVQKSNWEAGNTFTCSVLHEGLHNHHTEKSLSHSPGK", "modifications": "Synthetic: Construct III", "notes": "mIL2-…-MMPcs1-…-mIL2Ra-muIgG1Fc; hep/col IV"}, "B3": {"name": "641 (protein)", "chain": "GVYHREARSGKYKLTYAEAKAVCEFEGGHLATYKGLEAARKIGFHVCAAGWMAKGRVGYPIVKPGPPNCGFGKTGIIDYGIRLNRSERWDAYCYNPHA", "modifications": "Synthetic: hyaluronic acid; pH dependent (Link_TGS6)"}}, "key": {"[1]": {"tested_on": "EMT6 breast cancer syngeneic model", "assay": "Real-time whole-body imaging of Dylight 650 labelled IL-2 fusion proteins in tumors", "assay_type": "in vivo", "conditions": "8 mg/kg IV once, each time-point over 96 hours, EMT6 tumor-bearing BALB/c mice", "protocol": "The levels of IL-2 fusion proteins present in tumors in vivo were assessed by utilizing fluorescently labelled proteins and real-time whole-body imaging. Non-cleavable Construct GGG and Construct DD were conjugated to Dylight 650 probe according to the manufacturer's protocol (Dylight 650 Antibody labeling kit, ThermoFisher). […] BALB/c mice were subcutaneously inoculated with EMT6 breast cancer syngeneic model, and when the average tumor volume reached 240 mm^3, animals were randomized into 3 groups based on tumor volumes (n=2 mice per treatment group).\nFollowing administration of a single dose of the labeled IL-2 fusion proteins to tumor-bearing mice, fluorescent images (excitation 640/emission 680 consistent with Dylight 650 probe ex/em spectra) were captured over 96 hours on an IVIS system (PerkinElmer, IVIS Lumina Series III) and are shown in FIG. 5A. The fluorescence intensity in tumor areas was quantified across the groups, average background tumor fluorescence (group 1) was subtracted from group 2 and 3 values at each time-point, and data were normalized to the initial fluorescence intensity of same amount of each labeled protein. […] This signifies next generation retention linker Construct DD accumulated and was retained in tumors at 2-fold higher levels compared to IL-2 fusion protein Construct GGG, lacking any targeting sequence."}, "[2]": {"tested_on": "B16F10 melanoma cells", "assay": "B16F10 melanoma tumor growth inhibition study", "assay_type": "in vivo", "conditions": "20 mg/kg IV Q3D, 5 doses, B16F10 in C57BL/6 mice", "protocol": "C57BL/6 mice were subcutaneously inoculated with B16F10 melanoma cells and when the average tumor volume reached on average 70-90 mm^3, animals were randomized into 6 groups based on tumor volumes (n=8 mice per treatment group). Mice were dosed intravenously every 3 days (Q3D) for a total of 5 doses according to Table 7.\nTumor volumes were measured twice a week for the duration of the study. […] On day 14, animals were sacrificed, and tissues and blood (processed to serum) were collected 24 hours post final dose (dose #5) and stored at −80° C. until further testing."}, "[3]": {"tested_on": "B16F10 melanoma cells", "assay": "Tumor lysate levels of full-length fusion protein (ELISA), IL-2 and IFN-γ (Luminex), B16F10 study", "assay_type": "in vivo, C57BL/6 mice", "conditions": "tumor lysate 24 hours after last dose", "protocol": "An ELISA assay was developed to detect and quantify prodrug fusion proteins comprising IL-2 and IL-2Ra moieties. Wells of a 96-well plate were coated overnight with 100 μL of a rat anti-mouse IL-2 monoclonal antibody (JES6-1A12; ThermoFisher) at […] in PBS. After washing, wells are blocked with TBS/0.05% Tween 20/1% BSA, then fusion proteins and/or unknown biological samples were added for 1 hour at room temperature. After washing, an anti-mouse IL-2Ra biotin-labelled detection antibody (BAF2438, R&D systems) was added and binding was detected using Ultra Strepavidin HRP (ThermoFisher). The ELISA plate was developed by adding the chromogenic tetramethylbenzidine substrate (Ultra TMB, ThermoFisher). The reaction was stopped by addition of 0.5 M H2SO4, and the absorbance was read at 450-650 nm.\nThe levels of full-length IL-2-IL-2Ra fusion proteins, IL-2, and IFN-7 were quantified in tumor samples collected during a pre-clinical efficacy study comparing a panel of retention linker IL-2 fusion drugs (see Example 10).\nTumors (n=3 per group) were collected 24 hours after the last dose injection, flash frozen, and stored at −80° C. until further processing. Tumor lysates were generated using tissue extraction reagent (ThermoFisher) supplemented with protease and phosphatase inhibitors. Standard techniques and protein concentrations were determined using the BCA assay (Pierce). […]"}, "[4]": {"conditions": "Link_TGS6; cited from earlier work"}}}
{"molecule": "B1", "values": [{"measurement": "tumor-associated fluorescence / level retained in tumors, fold higher compared to Construct GGG", "setting": "[1]", "result": "roughly 2 fold"}]}
{"molecule": "B2", "values": [{"measurement": "tumor growth inhibition (TGI)", "setting": "[2]", "result": 83.5, "unit": "%"}, {"measurement": "levels of IFN-7 in tumors", "setting": "[3]", "result": "enhanced"}, {"measurement": "IL-2 intratumoral levels", "setting": "[3]; compared to other arms", "result": "highest"}]}
{"molecule": "B3", "values": [{"measurement": "Note 2: pH dependence of binding to hyaluronic acid", "setting": "[4]", "result": "binds better at lower pH"}]}
